Our source for the BDNF activity in TrkBluciferase assay, EC50 [% or nM] and relative BDNF activity in TrkB luciferase assay, EC50 [%] values is US20190271021A1.

This test addresses human TrkB on CHO cells (CHO-K1-hTrkB/pSRE-Luc) (human) (UniProt Q16620). As to the kind of experiment: cell-based or functional assay.

Chain of human TrkB on CHO cells (CHO-K1-hTrkB/pSRE-Luc) (human) (Q16620 32-822): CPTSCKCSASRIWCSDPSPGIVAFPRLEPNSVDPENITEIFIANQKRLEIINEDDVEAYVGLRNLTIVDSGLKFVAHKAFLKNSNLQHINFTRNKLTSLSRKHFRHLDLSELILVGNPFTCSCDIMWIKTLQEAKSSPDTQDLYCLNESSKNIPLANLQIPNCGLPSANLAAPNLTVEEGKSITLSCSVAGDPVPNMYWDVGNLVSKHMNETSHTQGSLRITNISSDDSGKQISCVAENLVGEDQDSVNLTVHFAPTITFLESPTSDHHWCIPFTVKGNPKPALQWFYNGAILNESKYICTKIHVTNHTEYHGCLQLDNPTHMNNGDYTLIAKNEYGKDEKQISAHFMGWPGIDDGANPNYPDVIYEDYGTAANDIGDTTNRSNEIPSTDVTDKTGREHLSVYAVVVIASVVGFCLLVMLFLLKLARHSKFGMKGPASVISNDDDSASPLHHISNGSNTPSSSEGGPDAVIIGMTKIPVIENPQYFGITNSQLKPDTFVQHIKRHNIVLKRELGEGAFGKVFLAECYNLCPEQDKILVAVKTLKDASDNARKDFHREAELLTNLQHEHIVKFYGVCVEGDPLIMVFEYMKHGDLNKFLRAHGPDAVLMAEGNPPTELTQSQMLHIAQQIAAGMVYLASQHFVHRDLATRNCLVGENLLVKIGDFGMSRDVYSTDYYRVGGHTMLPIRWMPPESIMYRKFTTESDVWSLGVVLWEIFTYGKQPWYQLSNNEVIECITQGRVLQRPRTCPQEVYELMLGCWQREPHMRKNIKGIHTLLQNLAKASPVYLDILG

Take “pre-pro-BDNF(-RGR; K25N; T35N; Q79T)-T7-His6 (ligand)”: the BDNF activity in TrkBluciferase assay, EC50 [% or nM] was 2830%. As to “complex of pre-pro(IgA)-BDNF(-RGR)_opsin(L)-(G3D)4-G3S_VH<TfR>8D3-CH1-His6, anti-transferrin receptor antibody light chain and not-fused pre-pro(IgA)-BDNF(-RGR; R81N)-His6 (from UniProt P23560 1-244)”, the relative BDNF activity in TrkB luciferase assay, EC50 [%] is 80%. For “complex of pre-pro(IgA)-BDNF(-RGR; R81N)_opsin(L)-(G3D)4-G3S_VH<TfR>8D3-CH1-His6, anti-transferrin receptor antibody light chain and not-fused pre-pro(IgA)-BDNF(-RGR; R81N)-His6 (from UniProt P23560 1-244)”, the relative BDNF activity in TrkB luciferase assay, EC50 [%] came to 110%. Still for that read-out and setting: as for “pre-pro(IgA)-BDNF(-RGR)_opsin(L)-(G3D)4-G3S_VH<TfR>8D3-CH1-His6 with chimeric rat/human anti-transferrin receptor antibody light chain”, the figure is 200%. Take “complex of pre-pro(IgA)-BDNF(-RGR)_opsin(L)-(G3D)4-G3S_VH<TfR>8D3-CH1-His6, anti-transferrin receptor antibody light chain and not-fused pre-pro(IgA)-BDNF(-RGR)-opsin(L)-T7-His6”: the relative BDNF activity in TrkB luciferase assay, EC50 [%] turned out to be 60%.
